B1: Protein-export protein SecB (Escherichia coli (strain K12)), P0AG86 (parent)
chain: MSEQNNTEMTFQIQRIYTKDISFEAPNAPHVFQKDWQPEVKLDLDTASSQLADDVYEVVLRVTVTASLGEETAFLCEVQQGGIFSIAGIEGTQMAHCLGAYCPNILFPYARECITSMVSRGTFPQLNLAPVNFDALFMNYLQQQAGEGTEEHQDA

Variants of: B1
Details: with seca_ecoli secA

Variant	effect of a mutation on the interaction
MSEQNNTEMTFQIQRIYTKDISFEAPNAPHVFQKDWQPEVKLDLDTASSQLADDVYEVVLRVTVTASLGEETAFLCEVQQGGIFSIAGIEGCQMAHCLGAYCPNILFPYARECITSMVSRGTFPQLNLAPVNFDALFMNYLQQQAGEGTEEHQDA [T92C]	increasing interaction strength
MSEQNNTEMTFQIQRIYTKDISFEAPNAPHVFQKDWQPEVKLDLDTASSQLADDVYEVVLRVTVCASLGEETAFLCEVQQGGIFSIAGIEGTQMAHCLGAYCPNILFPYARECITSMVSRGTFPQLNLAPVNFDALFMNYLQQQAGEGTEEHQDA [T65C]	increasing interaction strength
MSEQNNTEMTFQIQRIYTKDISFEAPNAPHVFQKDWQPEVKLCLDTASSQLADDVYEVVLRVTVTASLGEETAFLCEVQQGGIFSIAGIEGTQMAHCLGAYCPNILFPYARECITSMVSRGTFPQLNLAPVNFDALFMNYLQQQAGEGTEEHQDA [D43C]	increasing interaction strength
MSEQNNTEMTFQIQRIYTKDISFEAPNAPHVFQKDWQPEVKLDLDCASSQLADDVYEVVLRVTVTASLGEETAFLCEVQQGGIFSIAGIEGTQMAHCLGAYCPNILFPYARECITSMVSRGTFPQLNLAPVNFDALFMNYLQQQAGEGTEEHQDA [T46C]	increasing interaction strength
MSEQNNTEMTFQIQRIYTKDISFEAPNAPHVFQKDWQPEVKLDLDTASSQLADDVYEVVLRVTVTASLGEETAFLCEVQQGGIFCIAGIEGTQMAHCLGAYCPNILFPYARECITSMVSRGTFPQLNLAPVNFDALFMNYLQQQAGEGTEEHQDA [S85C]	increasing interaction strength
MSEQNNTEMTFQIQRIYTKDISFEAPNAPHVFQKDWQPEVKLDLCTASSQLADDVYEVVLRVTVTASLGEETAFLCEVQQGGIFSIAGIEGTQMAHCLGAYCPNILFPYARECITSMVSRGTFPQLNLAPVNFDALFMNYLQQQAGEGTEEHQDA [D45C]	increasing interaction strength
MSEQNNTEMTFQIQRIYTKDISFEAPNAPHVFQKCWQPEVKLDLDTASSQLADDVYEVVLRVTVTASLGEETAFLCEVQQGGIFSIAGIEGTQMAHCLGAYCPNILFPYARECITSMVSRGTFPQLNLAPVNFDALFMNYLQQQAGEGTEEHQDA [D35C]	increasing interaction strength
MSEQNNTEMTFQIQRIYTKDISFEAPNAPHVFQKDWQPEVKLDLDTASSCLADDVYEVVLRVTVTASLGEETAFLCEVQQGGIFSIAGIEGTQMAHCLGAYCPNILFPYARECITSMVSRGTFPQLNLAPVNFDALFMNYLQQQAGEGTEEHQDA [Q50C]	increasing interaction strength
MSEQNNTEMTFQIQRIYTKDISFEAPNAPHVFQKDWQPEVKLDLDTASSQLADDVYEVVLRVTVTASLGEETAFLCEVQQGGIFSIAGIEGTQMAHCLGAYCPNILFPYARECITSMVSRGTFPQLNLAPVNFDACFMNYLQQQAGEGTEEHQDA [L136C]	increasing interaction strength
MSEQNNTEMTFQIQRIYTKDISFEAPNAPHVFQKDWQPEVKLDLDTASSQLADDVYEVVLRVTVTASLGEETAFLCEVQQGGIFSIAGIEGTQMAHCLGAYCPNILFPYARECITSMVSRGTFPQCNLAPVNFDALFMNYLQQQAGEGTEEHQDA [L126C]	increasing interaction strength
MSEQNNTEMTFQICRIYTKDISFEAPNAPHVFQKDWQPEVKLDLDTASSQLADDVYEVVLRVTVTASLGEETAFLCEVQQGGIFSIAGIEGTQMAHCLGAYCPNILFPYARECITSMVSRGTFPQLNLAPVNFDALFMNYLQQQAGEGTEEHQDA [Q14C]	increasing interaction strength
MSEQNNTEMTFQIQRIYTKDISFEAPNAPHVFQKDWQPEVKLDLDTASSQLADDVYEVVLRVTVTASLGEETAFLCEVQQGGIFSICGIEGTQMAHCLGAYCPNILFPYARECITSMVSRGTFPQLNLAPVNFDALFMNYLQQQAGEGTEEHQDA [A87C]	increasing interaction strength
MSEQNNTEMTFQIQRIYTKDISFEAPNAPHVFCKDWQPEVKLDLDTASSQLADDVYEVVLRVTVTASLGEETAFLCEVQQGGIFSIAGIEGTQMAHCLGAYCPNILFPYARECITSMVSRGTFPQLNLAPVNFDALFMNYLQQQAGEGTEEHQDA [Q33C]	increasing interaction strength
MSEQNNTEMTFQIQRIYTKDISFCAPNAPHVFQKDWQPEVKLDLDTASSQLADDVYEVVLRVTVTASLGEETAFLCEVQQGGIFSIAGIEGTQMAHCLGAYCPNILFPYARECITSMVSRGTFPQLNLAPVNFDALFMNYLQQQAGEGTEEHQDA [E24C]	increasing interaction strength

Now from value to variant:

effect of a mutation on the interaction	Variant
increasing interaction strength	MSEQNNTEMTFQIQRIYTKDISFEAPNAPHVFQKDWQPEVKLDLDTASSQLADDVYEVVLRVTVTASLGEETAFLCEVQQGGIFSIAGIEGTQMAHCLGAYCPNILFPYARECITSMVSRGTFPQLNLAPVNFDALFMNYLQQQAEEGTEEHQDA [G146E]
increasing interaction strength	MSEQNNTEMTFQIQRIYTKDISFEAPNAPHVFQKDWQPEVKLDLDTASSQLADDVYEVVLRVTVTASLGEETAFLCEVQQGGIFSIAGIEGTQMAHCLGAYCPNILFPYARECITSMVSRGTFPQLNLAPVNFDALFMNYLQQQAGEGCEEHQDA [T149C]
increasing interaction strength	MSEQNNTEMTFQIQRIYTKDISFEAPNAPHVFQKDWQPEVKLDLDTASSQLADDVYEVVLRVTVTASLGEETAFLCEVQQGGIFSIAGIEGTQMAHCLGAYCPNILFPYARECITSMVSRGTFPQLNLAPVNFDALFMNYLQQQAGEGTCEHQDA [E150C]
increasing interaction strength	MSEQNNTEMTFQIQRIYTKDISFEAPNAPHVFQKDWQPEVKLDLDTASSQLADDVYEVVLRVTVTASLGEETAFLCEVQQGGIFSIAGIEGTQMAHCLGAYCPNILFPYARECITSMVSRGTFPQLNLAPVNFDALFMNYLQCQAGEGTEEHQDA [Q143C]
increasing interaction strength	MSEQNNTEMTFQIQRIYTKDISFEAPNAPHVFQKDWQPEVKLDLDTASSQLADDVYEVVLRVTVTASLGEETAFLCEVQQGGIFSIAGIEGTQMAHCLGAYCPNILFPYARECITSMVSRGTFPQLNLAPVNFDALFMNYLQQQAGCGTEEHQDA [E147C]
increasing interaction strength	MSEQNNTEMTFQIQRIYTKDISFEAPNAPHVFQKDWQPEVKLDLDTASSQLADDVYEVVLRVTVTASLGEETAFLCEVQQGGIFSIAGIEGTQMAHCLGAYCPNILFPYARECITSMVSRGTFPQLNLAPVNFDALFMNYLQQQAGEGTEEHQDC [A155C]
increasing interaction strength	MSEQNNTEMTFQIQRIYTKDISFEAPNAPHVFQKDWQPEVKLDLDTASSQLADDVYEVVLRVTVTASLGEETAFLCEVQQGGIFSIAGIEGTQMAHCLGAYCPNILFPYARECITSMVSRGTFPQLNLAPVNFDALFMNYCQQQAGEGTEEHQDA [L141C]
